Where two headings read alike, the source gives them in different places.
B1: Fab 14G3 (Fab, V domains shown)
VH: QVQLQESGPGLVKPSQTLSLTCTVSGASISSDNHYWSWIRQPPGKGLEWIASIYYTGGTNYNPSLKSRLALSIDTSGDQFSLKLSSVTAADTAVYYCVRGLFFITARPYWYFDLWGRGTLVAVSS
VL: DVVMTQTPLSLSVTPGEPASISCRSSQSLLDSDDGNTYLDWYLQKPGQSPQLLIYTLSYRASGVPDRFSGSGSGTDFTLKISRVEADDVGIYYCMQRMEFPFTFGQGTRLDIKR
B2: IgG form of 30D8 (antibody, V domains shown)
VH: EVQLLQSGAELKKPGASVKISCKTSGFTFSGHTIAWVRQAPGQGLEWMGWVSTNNGNTEYAQKIQGRVTMTMDTSTSTVYMELRSLTSDDTAVYFCAREWLVMGGFAFDHWGQGTLLTVSS
VL: QSVLTQASSVSVAPGQTARITCGANNIGSQNVHWYQQKPGQAPVLVVYDDRDRPSGIPDRFSGSNSGNTATLTISRVEAGDEADYYCQVWDSSRDQAVIFGGGTKLTVLG
notes: also called IgG 30D8; 30D8 Mab

How the values were obtained:
[1] = target: T1, recombinant RSV F protein, strain A2, extracellular domain (Respiratory Syncytial Virus strain A2, UniProt P03420 26-524); experiment: ELISA, purified Fab, estimated EC50
T1 construct: also called RSV F1 lysate (recombinant); RSV F lysate

[2] = target: T2, native RSV F protein from the RSV A2 strain (Respiratory Syncytial Virus strain A2, UniProt P03420 26-574); experiment: cell-based or functional assay
[3] = target: T3, RSV F A2 mutant V278M (human RSV, A2 strain, UniProt P03420 26-574); experiment: mutant F in HEK 293 cells
T3 construct: whole, on cells

[4] = target: F protein of RSV B-1 (respiratory syncytial virus B-1, UniProt O36634 26-574); experiment: cell-based or functional assay
[5] = target: F protein of RSV B-wash (strain 18537) (respiratory syncytial virus B, strain …, UniProt P13843 26-574); experiment: cell-based or functional assay
[6] = target: T2, native RSV F protein from the RSV A2 …; experiment: cell-based or functional assay; remark: listed apart in the source
[7] = target: F protein of the parental RSV A2 strain (Example 11) (Respiratory Syncytial Virus strain A2, UniProt P03420 26-574); experiment: cell-based or functional assay

Row | Binder | EC50 [1] [nM] | ED50, plaque reduction, RSV A2 [2] [nM] | ED50, plaque reduction, RSV A2 (mass concentration) [2] [µg/mL] | ratio of binding 58C5/30D8 [3] | ED50, plaque reduction, RSV B-1 [4] [nM] | ED50, plaque reduction, RSV B/wash [5] [nM] | ED50, plaque reduction, RSV A2 [6] [nM] | ED50, plaque reduction, RSV A2 parental [7] [nM]
1 | B1 | 8.2 | 3.4 | 0.172 |  |  |  |  | 
2 | B2 |  |  |  | 3.1 | 0.055 | 0.115 | 0.089 | 0.096
